Common to all, as to test: purified protein
What all share (type): biochemical, Homo sapiens

Substrate in data set [1]: O=C1NC(=O)C(c2ccccc2)(c2ccccc2)N1
To be noted: ATP held constant, ATP-dependent transport, MgCl2, pH 7.4, labelled compound.

Substrate in data set [2]: Nc1ncnc2c1ncn2[C@@H]1O[C@H](COP(=O)(O)OP(=O)(O)OP(=O)(O)O)[C@@H](O)[C@H]1O
As to conditions: co-substrate phenytoin held constant, MgCl2, pH 7.4.

Substrate in data set [3]: NC(=O)N1c2ccccc2C=Cc2ccccc21
As to conditions: ATP held constant, ATP-dependent transport, MgCl2, pH 7.4, labelled compound.

B1: RLIP76 (Homo sapiens) (protein)
chain: MTECFLPPTSSPSEHRRVEHGSGLTRTPSSEEISPTKFPGLYRTGEPSPPHDILHEPPDVVSDDEKDHGKKKGKFKKKEKRTEGYAAFQEDSSGDEAESPSKMKRSKGIHVFKKPSFSKKKEKDFKIKEKPKEEKHKEEKHKEEKHKEKKSKDLTAADVVKQWKEKKKKKKPIQEPEVPQIDVPNLKPIFGIPLADAVERTMMYDGIRLPAVFRECIDYVEKYGMKCEGIYRVSGIKSKVDELKAAYDREESTNLEDYEPNTVASLLKQYLRDLPENLLTKELMPRFEEACGRTTETEKVQEFQRLLKELPECNYLLISWLIVHMDHVIAKELETKMNIQNISIVLSPTVQISNRVLYVFFTHVQELFGNVVLKQVMKPLRWSNMATMPTLPETQAGIKEEIRRQEFLLNCLHRDLQGGIKDLSKEERLWEVQRILTALKRKLREAKRQECETKIAQEIASLSKEDVSKEEMNENEEVINILLAQENEILTEQEELLAMEQFLRRQIASEKEEIERLRAEIAEIQSRQQHGRSETEEYSSESESESEDEEELQIILEDLQRQNEELEIKNNHLNQAIHEEREAIIELRVQLRLLQMQRAKAEQQAQEDEEPEWRGGAVQPPRDGVLEPKAAKEQPKAGKEPAKPSPSRDRKETSI
notes: pET30a(+), E. coli BL21(DE3); reconstituted in asolectin-cholesterol liposomes
Consider B1, for which the Km in “purified protein [1]” was 0.43 µM; in “purified protein [2]”, 1330 µM; in “purified protein [3]” it was 0.25 µM.

As a reminder, the Km is the concentration of substrate that gives half-maximal velocity.
